The MegaScale stability set (Tsuboyama et al. 2023)

B1: 6NMW (parent)
chain: QGDIVVALYPYDGIHPDDLSFKKGEKMKVLEEHGEWWKAKSLLTKKEGFIPSNYVAKLN
B2: HHH_rd2_0155 (parent)
chain: PPDDERKKAEKAARSGNEEKAREILERLGYSEDEARELAKRLR

Variants of: B1
Assay: folding stability dG (cDNA display proteolysis); higher = more stable
Settings: PBS, room temperature

Folding stability dG [kcal/mol], by site and new letter:
N59: T 3.58 | R 3.22 | G 4.04 | W 3.08 | L 3.64 | E 3.86 | H 3.98 | K 3.53 | Y 3.57 | I 4 | F 3.48 | A 3.8 | M 3.64 | P 3.88 | D 3.82 | C 4.64 | Q 3.56 | V 3.95 | S 4.06
L58: T 2.86 | V 3.89 | Y 3.52 | S 2.55 | W 3.73

Variants of: B2
Assay: as above
Settings: PBS, room temperature

Folding stability dG [kcal/mol]: each site, then its substitutions
E5: I 1.51 | M 2.33 | L 2.65 | T 1.73 | W 2.35 | S 1.8 | V 1.61 | P 1.8 | N 1.5 | K 1.45 | Q 1.91 | F 1.88 | G 1.65 | H 1.5 | A 1.86 | Y 1.81 | D 2.01 | R 1.66
A12: I 1.61 | E 2 | R 1.18 | L 2.38 | H 1.9 | W 2.4 | G 1.03 | D 0.919 | V 1.49 | Q 1.69 | K 1.01 | T 1.24 | N 1.04 | P 0.925 | S 1.34 | Y 2.6 | M 2.11 | F 2.47
D4: R 1.98 | P 1.88 | C 2.15 | L 2.22 | I 2.17 | H 1.88 | S 2.16 | N 1.9 | A 2.09 | W 2.09 | F 2.02 | K 1.95 | Y 1.93 | M 1.97 | G 1.75 | T 2.17 | Q 2.04 | V 2.06 | E 2.26
K8: P 1.14 | H 1.94 | Q 2.19 | D 1.86 | N 1.99 | V 1.77 | I 1.84 | A 2.18 | T 1.81 | G 1.36 | L 2.22 | F 1.75 | R 2.15 | S 1.84 | Y 1.62 | M 2.18 | W 1.97 | E 2.26
P2: C 2.29 | R 2.17 | Y 2.29 | V 2.2 | S 1.97 | G 2.04 | W 2.29 | T 2.02 | D 2.21 | A 2.18 | L 2.14 | N 2.15 | M 2.23 | F 2.35 | K 2.11 | Q 2.15 | H 2.24 | I 2.25 | E 2.24
R6: H 2.1 | I 2.63 | W 3.4 | L 3 | T 1.54 | Y 3.31 | P 0.99 | K 1.75 | F 3.38 | E 1.54 | M 3.24 | S 1.3 | G 1.11 | A 1.63 | Q 1.73 | N 1.17 | D 0.9 | V 2.27
K7: G 1.76 | P 1.16 | D 1.7 | Y 1.91 | I 2.08 | Q 2.18 | A 2.1 | F 1.89 | W 2.15 | N 1.85 | V 2.02 | T 2.17 | L 2.17 | E 1.98 | R 2.25 | M 2.21 | C 2.17 | S 1.94 | H 1.85
G16: P 0.825 | K 1.22 | F 1.53 | Y 1.47 | T 0.813 | Q 1.04 | R 1.11 | I 1.2 | E 0.965 | W 1.42 | V 0.998 | N 1.23 | L 1.54 | M 1.33 | A 1.15 | S 1.22 | H 1.32 | D 1.24
E10: F 2.16 | Y 2.44 | P 1.05 | L 2.38 | S 1.66 | W 2.31 | I 2.4 | M 2.33 | T 1.82 | R 2.03 | G 1.58 | K 1.78 | Q 1.93 | H 1.75 | A 2.3 | D 1.22 | V 2.23 | N 1.29
R14: N 1.3 | K 2.08 | D 1.01 | L 1.79 | M 1.96 | H 1.6 | F 1.6 | P 0.9 | A 1.78 | I 1.84 | Q 1.89 | V 1.75 | Y 1.73 | W 1.77 | S 1.44 | G 1.04 | T 1.41 | E 1.32
K11: G 1.39 | W 2.14 | I 2.45 | L 2.35 | R 2.47 | A 2.43 | C 2.29 | H 2.32 | E 2.5 | P 0.889 | Q 2.36 | N 2.11 | Y 2.14 | M 2.48 | T 2.11 | F 2.01 | S 1.97 | V 2.19 | D 2.38
N17: G 1.08 | E 1.71 | H 1.77 | K 1.42 | P 0.962 | I 1.13 | L 1.65 | M 1.61 | D 2.42 | F 1.9 | T 0.954 | R 1.46 | S 1.4 | A 1.4 | Q 1.81
S15: Q 2.21 | T 1.8 | C 2.15 | W 1.83 | V 1.55 | M 2.26 | F 1.65 | L 1.95 | I 1.57 | N 2.09 | P 0.861 | K 1.59 | A 2.26 | D 2.23 | E 2.53 | G 1.86 | H 1.83 | Y 1.55 | R 2.05
A9: F 1.27 | Y 1.47 | I 1.25 | L 1.33 | C 1.45 | P 1.13 | E 1.03 | W 1.53 | K 0.809 | M 1.05 | D 0.819 | G 1.13 | H 1.18 | V 1.29 | N 0.839 | T 1.05 | R 0.946 | S 1.02 | Q 0.885
D3: G 1.98 | Q 1.92 | M 2.02 | S 2.08 | W 2.1 | F 1.79 | V 1.85 | T 1.95 | H 1.9 | C 2.41 | N 1.98 | I 1.95 | Y 1.93 | K 1.73 | R 1.75 | P 1.89 | E 2.14 | A 1.91 | L 2.06
P1: G 2.26 | N 2.41 | V 2.13 | Q 2.2 | T 2.36 | W 2.33 | E 2.2 | A 2.22 | H 2.29 | L 2.24 | Y 2.24 | F 2.22 | K 2.14 | M 2.17 | R 2.21 | D 2.36 | S 2.35 | I 2.12
A13: R 0.884 | E 0.902 | M 1.35 | Q 0.906 | P 0.95 | W 1.82 | H 1 | I 1.46 | D 0.978 | G 1.07 | T 1.15 | Y 1.35 | L 1.54 | F 1.5 | S 1.13 | N 0.717 | V 1.19 | K 0.841
